In article PMC8215210:

Target: T1, His-OpaR (Vibrio parahaemolyticus RIMD2210633) (UniProt Q79YV4)
T1 sequence: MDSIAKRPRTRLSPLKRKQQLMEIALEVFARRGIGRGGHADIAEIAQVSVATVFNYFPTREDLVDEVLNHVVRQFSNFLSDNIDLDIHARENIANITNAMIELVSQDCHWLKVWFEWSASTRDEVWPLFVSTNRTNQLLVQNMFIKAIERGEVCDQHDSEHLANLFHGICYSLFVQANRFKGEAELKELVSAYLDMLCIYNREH
Experiment: DNase I footprinting
Conditions: Buffer, salt, pH and temperature not given (as in Zhang et al., 2012, 2017); EMSA on 6% polyacrylamide gel; footprinting with 0, 6, 9, 12 pmol His-OpaR

## AGACAATCACACCGATAGCCAGTAAGAAAATCATCACAAAAGGGATGAGTACAGCAGTACGTAGTGTAATTTGAGTCTTTGCAGTAGACATTGCCTAGTCACATTAGGGATGGTTCACCTTAATTGTACTGACATTTCTGTTAATATCGAGCGCTAAGCACTCTCATTGTTAACTCACTGCTTAAGTGACGGTCAGTACAACTCTTTTAACTTTCTGGTTAGCGTATTGCGTCCCCAGCCTAATACTTTAGCGGCATCTTGCTTGTGACCTTTAGTGTG (double strand) [VP0117 footprint probe]
  binding: binds

## CCACTCCTCTTACAAGAATGAGGACGACATCAAGAAAATATTAAAAAATGGATAATTAACCATCGGTTAAGCGTAATAACTAATGACGCTATAAAGTTTTTTGTTATTATCAGTTAATTGTCAGTAGTACATGGACTTAACCGTAGTCGTTTCATGGGAATCTTGGAATCCGATATT (double strand) [VP0699 footprint probe]
  binding: binds

## CCATTAAGTGACTTTAGTTCCACTTTTTTAGCTTATTTGATGACATAAGCAACAGTTTCGCCTCCAACCAATAAACAACTGAATACATATTAAAATATTCATTAAATTGACTATTTTTATGATAAACGCTTAATAATAGTTTTATCTATAAACAAACAGTGAGCTTTGTTATAAATTCATTAAAAATTTAACTTTGTATTAATTAGAAAATTCAGCGTCATATTTGTTCAACTGCGA (double strand) [scrA footprint probe]
  binding: binds

## CTTACCTTGGCGTACCTCTTGCCAATCCGTACTTTCAAATAAATCGCCTTGTCCTTGCATCCCGTTGCCTATTTAAACCATAAAAATTTCAGATAATTATTACCTTTGCAAAGGCTATTGGTTATTCTTGTAGATAATAAGAATTTTAACAATAAAAGAATAATTCTCGTAGTAACGGACGAGCTAGTGGGGAGCTAATGCGTTATTCACCCAGAAAGCAGT (double strand) [VPA0198 footprint probe]
  binding: binds

## GCCATATTCCAAACTCGTTGTGCCTGCCTTTTCAAGAACTGCTGGATAACGGTTACATCAAACCGAACTCAGAATTGAAACAAGCATTTAGCGAACTGTCGCTATATAATGACAATTCAATCATTTTCAGCTGTGGCTCAGGTGTGACTGCCTGTATTTTATTGTTGGCAGCTCATCAACTTGGCTTACGCA (double strand) [VPA1176 footprint probe]
  binding: binds

## GCTTTTCTAGGCACAAAATGACTTTAGAATGGATTAATGCGAAAGCAATTAAAAAAGTGTGAGTAACGGCTGCAAACTATTGATTTCAATGTCAGGTAACGTACGTGTTCTTGAATGATTAATGACATTTTTATTCATATCATTAAACCAACATGCGGCAAAACCCGCTAACTTTGCACCATATACATCCGTCGTGAGGTGGTCACCAACATGCAAAATGTTTTCGGCAGGTAAATCGAGGAACTGCT (double strand) [VP2979 footprint probe]
  binding: binds
